Consider ten molecules from patent US20240374671A1 (ACCELERON PHARMA, published 2024).

The target in assay [1] is T1, monomeric hActRIIB (human, UniProt Q13705 25-130, limits assumed).
T1 construct: also called ActRIIB MONOMER; ActRIIB monomer
T1 sequence: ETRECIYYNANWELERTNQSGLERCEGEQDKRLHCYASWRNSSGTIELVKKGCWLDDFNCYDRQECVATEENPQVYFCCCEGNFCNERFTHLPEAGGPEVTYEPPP
Briefly: SPR (Biacore), 37 C.

For assay [2], the target named is T2, dimeric hActRIIB (human, UniProt Q13705 25-130).
T2 construct: also called ActRIIB DIMER; ActRIIB dimer
T2 sequence: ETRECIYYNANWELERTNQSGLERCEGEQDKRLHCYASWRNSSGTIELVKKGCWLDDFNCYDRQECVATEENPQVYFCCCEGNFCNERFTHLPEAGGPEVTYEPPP
As to the kind of experiment: SPR (Biacore), 37 C.

Assay [3] addresses T3, monomeric hActRIIA (human, UniProt P27037 21-138, limits assumed).
T3 construct: also called ActRIIA MONOMER; ActRIIA monomer
Briefly: SPR (Biacore), 37 C.

In assay [4] the target is T4, dimeric hActRIIA (human, UniProt P27037 21-138).
T4 construct: also called ActRIIA DIMER; ActRIIA dimer
T4 sequence (P27037 21-138): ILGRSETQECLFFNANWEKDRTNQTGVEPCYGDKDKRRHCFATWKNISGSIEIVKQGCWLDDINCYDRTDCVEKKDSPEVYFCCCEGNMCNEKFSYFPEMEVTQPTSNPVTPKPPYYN
As to the kind of experiment: SPR (Biacore), 37 C.

Assay [5] has as its target T3, monomeric hActRIIA. As to the kind of experiment: SPR (Biacore), 37 C, mAb captured on anti-hFc chip, receptor injected. The procedure:
(§1) Kinetic characterization of A01 antibody lineage (A01 (naïve parent), B01, C01, D01, E01 and F01) binding to monomeric and dimeric hActRIIB and hActRIIA was performed using standard BIACORE®-based analysis at 37° C. In brief, antibodies were captured on anti-hFcIgG Biacore chips and different concentrations of dimeric and monomeric ActRIIB or ActRIIA were injected in duplicates over the captured antibody and control surface. To obtain kinetic rate constants the data were double referenced and fit to a 1:1 interaction model using BiaEvaluation software (GE Healthcare). The equilibrium binding constant KD was determined by the ratio of binding rate constants kd/kₐ

In assay [6] the target is T4, dimeric hActRIIA. Described as above. As to the method:
as §1

Assay [7] has as its target T1, monomeric hActRIIB. As to the kind of experiment: SPR (Biacore), 37 C, mAb captured on anti-hFc chip, receptor injected, 1:1 fit. The procedure:
as §1

The target of assay [8] is T2, dimeric hActRIIB. Described as above. As to the method:
as §1

T3 sequence (P27037 21-138 limits assumed): as the sequence (P27037 21-138) above

B1: D02 (antibody, human IgG1, V domains shown)
VH: QVQLVQSGAEVKKPGASVKVSCKASGYTFTSYRMHWVRQAPGQGLEWMGFIVPSGGSTSYAQKFQGRVTMTRDTSTSTVYMELSSLRSEDTAVYYCARVSMYAPEPMDVWGQGTTVTVSS
VL: DIQMTQSPSSVSASVGDRVTITCRASQGISRWLAWYQQKPGKAPKLLIYAASSLQSGVPSRFSGSGSGTDFTLTISSLQPEDFATYYCQQAFSHPWTFGGGTKVEIK
notes: Human IgG
On to B1, for which the Kd in assay [1] turned out to be 0.65 nM; in assay [2], 0.727 nM; in assay [3], 18.6 nM; in assay [4], 0.316 nM. In addition, the koff in assay [1] was found to be 0.000291 s⁻¹; in assay [2] it was 0.000123 s⁻¹; in assay [3], 0.00684 s⁻¹; in assay [4], 0.000106 s⁻¹. The kon in assay [1] was determined as 447000 M⁻¹ s⁻¹; in assay [2], 170000 M⁻¹ s⁻¹; in assay [3] it was 369000 M⁻¹ s⁻¹; in assay [4] it was 336000 M⁻¹ s⁻¹.

B2: A02 (antibody, human IgG1, V domains shown)
VH: QVQLVQSGAEVKKPGASVKVSCKASGYTFTSYGISWVRQAPGQGLEWMGWISPYNGNTNYAQKLQGRVTMTTDTSTSTAYMELRSLRSDDTAVYYCARVSMYAPEPMDVWGQGTTVTVSS
VL: DIQMTQSPSSVSASVGDRVTITCRASQGISRWLAWYQQKPGKAPKLLIYAASSLQSGVPSRFSGSGSGTDFTLTISSLQPEDFATYYCQQAFSHPWTFGGGTKVEIK
notes: Human IgG; also called A02 Parent
In the case of B2, the Kd was found to be 22 nM in assay [1], 0.511 nM in assay [2] and 1.78 nM in assay [4]. The koff worked out at 0.0662 s⁻¹ in assay [1], 0.000112 s⁻¹ in assay [2] and 0.000627 s⁻¹ in assay [4]. For the same molecule, the results for the on-rate (kon) in assay [1], in assay [2] and in assay [4] were 3.02e+06 M⁻¹ s⁻¹, 219000 M⁻¹ s⁻¹ and 353000 M⁻¹ s⁻¹, respectively.

B3: B02 (antibody, human IgG1, V domains shown)
VH: QVQLVQSGAEVKKPGASVKVSCKASGYTFTGHKMHWVRQAPGQGLEWMGWINPASGWTNYAQKFQGRVTMTRDTSISTAYMELSRLRSDDTAVYYCARVSMYAPEPMDVWGQGTTVTVSS
VL: DIQMTQSPSSVSASVGDRVTITCRASQGISRWLAWYQQKPGKAPKLLIYAASSLQSGVPSRFSGSGSGTDFTLTISSLQPEDFATYYCQQAFSHPWTFGGGTKVEIK
notes: Human IgG
For B3, the Kd was determined as 1.1 nM in assay [1], 0.649 nM in assay [2], 8.13 nM in assay [3] and 0.338 nM in assay [4]. Further, the koff was 0.001 s⁻¹ in assay [1], 0.00021 s⁻¹ in assay [2], 0.00593 s⁻¹ in assay [3] and 0.000167 s⁻¹ in assay [4]. Also, the kon in assay [1] was found to be 905000 M⁻¹ s⁻¹; in assay [2] it was 323000 M⁻¹ s⁻¹; in assay [3], 729000 M⁻¹ s⁻¹; in assay [4] it was 495000 M⁻¹ s⁻¹.

B4: C02 (antibody, human IgG1, V domains shown)
VH: QVQLVQSGAEVKKPGASVKVSCKASGYTFTSYNMAWVRQAPGQGLEWMGIIRPSVGSTSYAQKFQGRVTMTRDTSTSTVYMELSSLRSEDTAVYYCARVSMYAPEPMDVWGQGTTVTVSS
VL: DIQMTQSPSSVSASVGDRVTITCRASQGISRWLAWYQQKPGKAPKLLIYAASSLQSGVPSRFSGSGSGTDFTLTISSLQPEDFATYYCQQAFSHPWTFGGGTKVEIK
notes: Human IgG
On to B4, for which the Kd came to 0.528 nM in assay [1], 0.333 nM in assay [2], 26.4 nM in assay [3] and 0.153 nM in assay [4]. Besides, the koff in assay [1] was 0.000515 s⁻¹; in assay [2], 9.64e-05 s⁻¹; in assay [4] it was 8.02e-05 s⁻¹. Moreover, the on-rate (kon) in assay [1] was found to be 975000 M⁻¹ s⁻¹; in assay [2] it was 289000 M⁻¹ s⁻¹; in assay [4] it was 524000 M⁻¹ s⁻¹.

B5: D03 (antibody, human IgG1)
heavy: not shown
light: DIQMTQSPSSVSASVGDRVTITCRASQGISRWLAWYQQKPGKAPKLLIYAASSLQSGVPSRFSGSGSGTDFTLTISSLQPEDFATYYCQQAFSHPWTFGGGTKVEIK
notes: Human IgG
In assay [1], B5 returned a Kd of 0.194 nM, a koff of 0.000203 s⁻¹ and a kon of 1.05e+06 M⁻¹ s⁻¹. In assay [2], the Kd turned out to be 0.0226 nM, the koff was 1.04e-05 s⁻¹ and the kon was determined as 459000 M⁻¹ s⁻¹.

B6: D01 (antibody, human IgG1, kappa, V domains shown)
VH: QVQLQESGPGLVKPSQTLSLTCTVSGGSIESGGYYWSWIRQHPGKGLEWIGGIYGSGSTYYNPSLKSRVTISVDTSKNQFSLKLSSVTAADTAVYYCARDSGIGYSYASSHGYYYYMDVWGKGTTVTVSS
VL: EIVLTQSPATLSVSPGERATLSCRASQSVGSNLAWYQQKPGQAPRLLIYGASTRATGIPARFSGSGSGTEFTLTISSLQSEDFAVYYCQQYFHFPLTFGGGTKVEIKR
notes: Human IgG
For B6, the binding result in assay [5] and in assay [6] was “no binding” throughout. Moreover, the Kd in assay [7] amounted to 2.19 nM; in assay [8] it was 0.302 nM. The koff came to 0.00354 s⁻¹ in assay [7] and 0.00025 s⁻¹ in assay [8]. The kon amounted to 1.61e+06 M⁻¹ s⁻¹ in assay [7] and 828000 M⁻¹ s⁻¹ in assay [8].

B7: B01 (antibody, V domains shown)
VH: QVQLQESGPGLVKPSQTLSLTCTVSGGSILSGGYYWSWIRQHPGKGLEWIGGIYYSGKTYYNPSLKSRVTISVDTSKNQFSLKLSSVTAADTAVYYCARDSGIGYSYASSHGYYYYMDVWGKGTTVTVSS
VL: EIVLTQSPATLSVSPGERATLSCRASQSVGSNLAWYQQKPGQAPRLLIYGASTRATGIPARFSGSGSGTEFTLTISSLQSEDFAVYYCQQYFHFPLTFGGGTKVEIK
notes: Human IgG
As for B7, the binding result in assay [5] is given as “no binding”. The binding result in assay [6] is “no binding”. In assay [7], this molecule registered a Kd of 3.64 nM, a koff of 0.0034 s⁻¹ and an on-rate (kon) of 1.09e+06 M⁻¹ s⁻¹. Besides, in assay [8], the affinity, expressed as Kd, was 0.393 nM; the koff was 0.000246 s⁻¹; the kon was 626000 M⁻¹ s⁻¹.

B8: F01 (antibody, human IgG1, kappa, V domains shown)
VH: QVQLQESGPGLVKPSQTLSLTCTVSGGSIKSGGYYWSWIRQHPGKGLEWIGGIYPSGSTYYNPSLKSRVTISVDTSKNQFSLKLSSVTAADTAVYYCARDSGIGYSYASSHGYYYYMDVWGKGTTVTVSS
VL: EIVLTQSPATLSVSPGERATLSCRASQSVGSNLAWYQQKPGQAPRLLIYGASTRATGIPARFSGSGSGTEFTLTISSLQSEDFAVYYCQQYFHFPLTFGGGTKVEIKR
notes: Human IgG
Turning to B8, the binding result in assay [5] and in assay [6] was “no binding” throughout. Also, the Kd is 3.32 nM in assay [7] and 0.36 nM in assay [8]. Besides, the koff in assay [7] came out at 0.00444 s⁻¹; in assay [8] it was 0.000216 s⁻¹. Further, the kon stood at 1.34e+06 M⁻¹ s⁻¹ in assay [7] and 601000 M⁻¹ s⁻¹ in assay [8].

B9: E01 (antibody, human IgG1, kappa, V domains shown)
VH: QVQLQESGPGLVKPSQTLSLTCTVSGGSIGSGGYYWSWIRQHPGKGLEWIGGIYGSGSTYYNPSLKSRVTISVDTSKNQFSLKLSSVTAADTAVYYCARDSGIGYSYASSHGYYYYMDVWGKGTTVTVSS
VL: EIVLTQSPATLSVSPGERATLSCRASQSVGSNLAWYQQKPGQAPRLLIYGASTRATGIPARFSGSGSGTEFTLTISSLQSEDFAVYYCQQYFHFPLTFGGGTKVEIKR
notes: Human IgG
On to B9, for which the binding result in assay [5] is given as “no binding”. Besides, in assay [6], the binding result is “no binding”. In assay [7], this molecule gave a Kd of 2.45 nM, a dissociation rate constant (koff) of 0.00415 s⁻¹ and a kon of 1.7e+06 M⁻¹ s⁻¹. In assay [8], the Kd amounted to 0.376 nM, the off-rate constant (koff) is 0.000292 s⁻¹ and the kon was found to be 777000 M⁻¹ s⁻¹.

B10: C01 (antibody, human IgG1, kappa, V domains shown)
VH: QVQLQESGPGLVKPSQTLSLTCTVSGGSISSGGYFWSWIRQHPGKGLEWIGGIYYSGRTYYNPSLKSRVTISVDTSKNQFSLKLSSVTAADTAVYYCARDSGIGYSYASSHGYYYYMDVWGKGTTVTVSS
VL: EIVLTQSPATLSVSPGERATLSCRASQSVGSNLAWYQQKPGQAPRLLIYGASTRATGIPARFSGSGSGTEFTLTISSLQSEDFAVYYCQQYFHFPLTFGGGTKVEIKR
notes: Human IgG
Regarding B10, the binding result in assay [5] was “no binding”. The binding result in assay [6] is “no binding”. Also, in assay [7], binding was characterised by a dissociation constant (Kd) of 5.22 nM, the koff amounted to 0.00712 s⁻¹ and the kon worked out at 1.37e+06 M⁻¹ s⁻¹. In assay [8], this molecule had a dissociation constant (Kd) of 0.236 nM, a koff of 0.000188 s⁻¹ and a kon of 797000 M⁻¹ s⁻¹.
